Measured values from patent US20200308228A1 (KING ABDULAZIZ UNIVERSITY, published 2020).
“Also recorded” adds a separate entry of the source. Where no end group is shown, it is not given here. [ ]: non-standard residue; d: D form. The star is where a group is joined. FITC = O=C1OC2(c3ccc(O)cc3Oc3cc(O)ccc32)c2ccc(NC(=S)*)cc21; hI = homoisoleucine, (2S)-2-amino-4-methylhexanoic acid; Chg = N[C@H](C(=O)O)C1CCCCC1; Ahx = NCCCCCC(=O)O

Legend:
[1] = target: T1, NS3 of SEQ ID NO: 3 (NS3 domain of Hepatitis C virus genotype 4a fused to the T7 tag at the N-terminus and … (Hepatitis C virus (genotype 4a))); experiment: differential static light scattering (DSLS), NS3:peptide 1:2, 2 h at room temperature
T1 construct: also called HCV NS3 genotype 4a
T1 chain: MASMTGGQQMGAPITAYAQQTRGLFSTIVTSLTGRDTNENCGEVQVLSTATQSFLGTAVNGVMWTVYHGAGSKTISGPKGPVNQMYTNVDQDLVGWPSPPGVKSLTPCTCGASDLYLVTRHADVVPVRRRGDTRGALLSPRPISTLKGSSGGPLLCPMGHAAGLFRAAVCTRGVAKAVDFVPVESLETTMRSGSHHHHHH

[2] = target: T1, NS3 of SEQ ID NO: 3 (NS3 domain of …); experiment: differential static light scattering (DSLS)
[3] = target: T1, NS3 of SEQ ID NO: 3 (NS3 domain of …); experiment: competition fluorescence anisotropy against 0.1 µM labelled NS4A peptide with 1.8 µM NS3
[4] = target: T1, NS3 of SEQ ID NO: 3 (NS3 domain of …); experiment: fluorescence anisotropy, 0.1 µM labelled peptide titrated with NS3
[5] = target: T2, Pep-15 of SEQ ID NO: 20 (KKGSx[…])
T2 chain: KKGSGVIVGRIVLSGKK

B1: NS4A peptide of SEQ ID NO: 4 (KK-[…]-KK, comprising the native NS4A21-33 of SEQ ID NO: 2) (peptide)
peptide: KKGSVVIVGRIVLSGKK
notes: Synthetic peptide; the KK at each end is not part of NS4A
[1]
  ΔTagg: 2.83 ° C.

B2: Pep-12 of SEQ ID NO: 17 (KKGSWVIVGRIVLSGKK) (peptide)
peptide: KKGSWVIVGRIVLSGKK
[2]
  binding result: binds

B3: Pep-11 of SEQ ID NO: 16 (KKGSFVIVGRIVLSGKK) (peptide)
peptide: KKGSFVIVGRIVLSGKK
[2]
  binding result: binds

B4: Pep-13 of SEQ ID NO: 18 (KKGSAVIVGRIVLSGKK) (peptide)
peptide: KKGSAVIVGRIVLSGKK
[2]
  binding result: binds

B5: Pep-14 of SEQ ID NO: 19 (KKGSh[…]) (peptide)
peptide: KKGS[hI]VIVGRIVLSGKK
[2]
  binding result: binds

B6: Pep-15 of SEQ ID NO: 20 (KKGSx[…]) (peptide)
peptide: KKGS[Chg]VIVGRIVLSGKK
[2]
  Tagg shift: 3.9 ° C.
[3]
  Kd: 70 nM

B7: isothiocyanate-labeled NS4A peptide of SEQ ID NO: 25 (FITC-NS4A) (peptide)
peptide: {FITC}-[Ahx]KKGSVVIVGRIVLSGKK
notes: also called fluorescein isothiocyanate-NS4A
[4]
  Kd: 169 nM

B8: NS3 of SEQ ID NO: 3 (NS3 domain of Hepatitis C virus genotype 4a fused to the T7 tag at the N-terminus and 6-His tag at the C-terminus) (protein)
chain: T1 chain
[5]
  protease activity (cleavage of 5FAM-substrate of SEQ ID NO: 22, fluorescence at 520 nm): maintained 69.7% of the enzyme activity during the first 60 minutes; also recorded: After 60 minutes, it was observed that the activity of the enzyme completely disappeared
